Data as given in publication PMC4357434.
Values belong to the molecule of their own block, whether it stands above or below them.

Legend:
[1] = biological target: RFP-tubulin (TagRFP-labeled α-tubulin) (UniProt P68363); test: FRET or BRET; FRET-iMSD (spatiotemporal image correlation of the FRET signal), TIRF time series at 10 ms resolution, about 60 s, live co-transfected CHO cells, basal condition; characteristic time of binding τb from the fit of G(0,τ)
[2] = biological target: TRPV1-RFP (Transient Receptor Potential Vanilloid 1 fused at its C-terminus to TagRFP) (UniProt O35433); test: FRET or BRET; acceptor photobleaching FRET in TIRF mode on live co-transfected CHO cells; acceptor bleached at 561 nm; apparent FRET percentage E pb after Stepensky
[3] = biological target: TRPV1-RFP (Transient Receptor Potential Vanilloid 1 fused at its C-terminus to TagRFP) (UniProt O35433); test: FRET or BRET; FRET-iMSD (spatiotemporal image correlation of the FRET signal), TIRF time series at 10 ms resolution, about 60 s, live co-transfected CHO cells, basal condition; characteristic time of binding τb from the fit of G(0,τ)
[4] = biological target: TRPV1-RFP (Transient Receptor Potential Vanilloid 1 fused at its C-terminus to TagRFP) (UniProt O35433); test: FRET or BRET; sensitized emission FRET (SE-FRET) imaged in TIRF mode on the membrane of live CHO K1 cells co-transfected with donor- and acceptor-fused proteins; bleed-through corrected; donor-normalised apparent FRET efficiency E D; 37°C

Chain of UniProt O35433 (O35433 whole entry, the tested form may be a part): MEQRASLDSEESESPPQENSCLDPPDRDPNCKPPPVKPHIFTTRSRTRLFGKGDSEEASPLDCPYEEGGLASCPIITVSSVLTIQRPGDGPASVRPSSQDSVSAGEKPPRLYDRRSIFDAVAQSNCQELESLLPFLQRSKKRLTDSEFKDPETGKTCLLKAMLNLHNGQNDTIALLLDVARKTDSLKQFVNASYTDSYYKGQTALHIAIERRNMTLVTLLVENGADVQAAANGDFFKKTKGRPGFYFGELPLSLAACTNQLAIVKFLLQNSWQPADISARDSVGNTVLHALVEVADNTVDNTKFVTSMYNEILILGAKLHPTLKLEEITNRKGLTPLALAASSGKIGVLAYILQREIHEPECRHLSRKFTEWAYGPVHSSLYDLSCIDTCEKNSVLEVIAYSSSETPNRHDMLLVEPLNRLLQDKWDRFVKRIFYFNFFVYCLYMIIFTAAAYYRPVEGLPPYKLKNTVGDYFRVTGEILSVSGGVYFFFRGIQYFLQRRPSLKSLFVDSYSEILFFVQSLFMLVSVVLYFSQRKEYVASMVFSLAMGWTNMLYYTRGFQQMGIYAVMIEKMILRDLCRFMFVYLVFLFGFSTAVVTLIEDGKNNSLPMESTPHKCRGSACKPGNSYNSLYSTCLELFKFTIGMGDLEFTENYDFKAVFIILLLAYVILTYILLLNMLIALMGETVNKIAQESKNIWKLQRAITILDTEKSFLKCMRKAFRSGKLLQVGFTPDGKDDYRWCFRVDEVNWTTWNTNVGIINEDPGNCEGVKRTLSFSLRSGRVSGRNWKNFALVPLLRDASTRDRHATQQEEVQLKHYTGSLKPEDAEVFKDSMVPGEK
Chain of UniProt P68363 (P68363 whole entry, the tested form may be a part): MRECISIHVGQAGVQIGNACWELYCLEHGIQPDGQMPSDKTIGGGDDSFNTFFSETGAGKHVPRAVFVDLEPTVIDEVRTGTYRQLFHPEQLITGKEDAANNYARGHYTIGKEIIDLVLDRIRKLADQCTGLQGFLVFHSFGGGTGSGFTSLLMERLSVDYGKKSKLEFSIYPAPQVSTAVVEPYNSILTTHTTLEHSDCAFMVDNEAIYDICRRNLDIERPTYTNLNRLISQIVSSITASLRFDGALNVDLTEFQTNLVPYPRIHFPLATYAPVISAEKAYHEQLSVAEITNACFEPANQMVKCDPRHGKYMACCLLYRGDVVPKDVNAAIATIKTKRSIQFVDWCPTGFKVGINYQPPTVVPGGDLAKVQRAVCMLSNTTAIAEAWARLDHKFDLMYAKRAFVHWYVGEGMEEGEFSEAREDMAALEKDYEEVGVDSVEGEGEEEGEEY

- τb (characteristic time of binding) [1]: > 60 s
Molecule: TRPV1-EGFP (from UniProt O35433 1-838) (receptor)

- apparent FRET percentage E pb (acceptor photobleaching) [2]: 11%
- τb (characteristic time of binding) [3]: 16.4 s
B1: Caveolin-1-EGFP (natural protein)
chain: MSGGKYVDSEGHLYTVPIREQGNIYKPNNKAMAEEMSEKQVYDAHTKEIDLVNRDPKHLNDDVVKIDFEDVIAEPEGTHSFDGIWKASFTTFTVTKYWFYRLLSALFGIPMALIWGIYFAILSFLHIWAVVPCIKSFLIEIQCISRVYSIYVHTFCDPFFEAVGKIFSNIRINMQKET
- apparent FRET efficiency E D [4]: 4%

B2: Caveolin-1-YFP (natural protein)
chain: B1 chain
- apparent FRET efficiency E D [4]: 30%
